Laboratory results taken from patent US6011146A, “Altered major histocompatibility complex (MHC) determinant and methods of using the determinant” (Institut Pasteur, priority 1995, dated 2000).
“And” between values parts separate entries of the source, which are not always exact repeats. Equal values may be shown once.

Experiments:
[1] = biological target: HLA-DR3 (human); assay: direct peptide binding assay, peptide coated at 30 µg/ml pH 9.6, 125I-labeled HLA-DR3, input 200000 cpm, duplicate
[2] = biological target: HLA-DRw13 (human); assay: direct peptide binding assay, peptide coated at 30 µg/ml pH 9.6, 125I-labeled HLA-DRw13, input 200000 cpm, duplicate
[3] = biological target: SC-K^d -15 (mouse) (UniProt P01887); assay: direct peptide binding assay, peptide coated at 5 µg/ml pH 9.6, 35S-labeled SC-Kd, input 6000 cpm, no coated peptide 228 and 223, duplicate
[4] = biological target: SC-K^d -15 (mouse) (UniProt P01887); assay: direct peptide binding assay, peptide coated at 30 µg/ml pH 9.6, 35S-labeled SC-Kd, input 10,000 cpm, duplicate
[5] = biological target: SC-K^d -15 (mouse) (UniProt P01887); assay: direct peptide binding assay, peptide coated at 10 µg/ml pH 5, 35S-labeled SC-Kd, input 10,000 cpm, duplicate
[6] = biological target: HLA-DRw13 (human); assay: direct peptide binding assay, peptide coated at 10 µg/ml pH 5, 125I-labeled HLA-DRw13, input 200000 cpm, duplicate
[7] = biological target: HLA-DR3 (human); assay: direct peptide binding assay, peptide coated at 10 µg/ml pH 5, 125I-labeled HLA-DR3, input 200000 cpm, duplicate
[8] = biological target: K^d molecules isolated from the spleen of BALB/c mice (mouse) (UniProt P01887)
[9] = biological target: SC-K^d -15 (mouse) (UniProt P01887)
[10] = biological target: K^d molecules isolated from the spleen of BALB/c mice (mouse) (UniProt P01887); assay: direct peptide binding assay, peptide coated at 10 µg/ml pH 9.6, 125I-labeled H-2K, input 100000 cpm, no coated peptide 1471 and 1595, duplicate
[11] = biological target: SC-K^d -15 (mouse) (UniProt P01887); assay: direct peptide binding assay, peptide coated at 10 µg/ml pH 9.6, 35S-labeled SC-Kd, input 6000 cpm, no coated peptide 228 and 223, duplicate
[12] = biological target: T1, K^d molecules isolated from the spleen of BALB/c mice (Mus musculus, UniProt P01902); assay: Direct peptide binding assay with purified 125I-labeled conventional K^d
T1 construct: K^d molecules isolated from the spleen of BALB/c mice; from tissue
T1 sequence (P01902 22-368): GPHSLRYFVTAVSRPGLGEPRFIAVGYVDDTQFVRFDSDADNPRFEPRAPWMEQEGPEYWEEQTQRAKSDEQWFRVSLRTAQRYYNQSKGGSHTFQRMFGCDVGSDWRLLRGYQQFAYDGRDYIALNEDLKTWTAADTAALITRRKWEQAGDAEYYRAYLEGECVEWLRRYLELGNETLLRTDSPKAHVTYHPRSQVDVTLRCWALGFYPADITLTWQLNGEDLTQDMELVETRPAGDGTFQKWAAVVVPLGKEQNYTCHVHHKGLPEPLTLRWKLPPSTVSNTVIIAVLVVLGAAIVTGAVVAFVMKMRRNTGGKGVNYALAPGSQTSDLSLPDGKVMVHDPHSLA
T1 sequence (P01887 21-119 partner): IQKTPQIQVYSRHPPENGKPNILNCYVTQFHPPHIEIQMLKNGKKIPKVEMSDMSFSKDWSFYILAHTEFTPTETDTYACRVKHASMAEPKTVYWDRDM
Description: (§1) Direct Peptide Binding Assay. Wells of microtiter plates are pretreated with 100 μl 2.5% glutaraldehyde in distilled water for 2 h at 20° C., washed with distilled water, and coated for 16 h at 4° C. with 100 μl of peptide diluted at 5 μg/ml either in carbonate-bicarbonate buffer, pH 9.6, or in PBS, pH 7.4 or pH 5.0. Remaining free sites are blocked by incubation for 2 h at 20° C. with BSA diluted 1% in PBS containing 0.05% Tween 20 (Tw) and 0.02% sodium azoture. After washing, purified ^125 I-HLA molecules (100 μl containing 1.5×10^5 cpm, 10^-9 M) diluted in PBS containing 1% BSA, 0.05% Tw, 0.02% sodium azoture, 1 mM PMSF, and 10 μg/ml trypsin inhibitor are added and incubated for 20 h at 20° C. After extensive washing, the radioactivity of each well is counted.
Inhibition Peptide Binding Assay. Concentrations of 0.1-100 μM of competitor peptides are incubated in tubes for 0-3 h at 20° C. with ^125 I-HLA (10^-9 M) diluted in PBS--BSA--Tw containing the protease inhibitors as mentioned above. […] After extensive washing, the radioactivity in each well is counted and the percent of inhibition is calculated. […]

[13] = biological target: T2, SC-K^d -15 (Mus musculus, UniProt P01887+P01902); assay: Direct peptide binding assay, solid phase, with purified 35S-labeled SC-Kd; settings: Table 10 (A), input 10,000 cpm, duplicates
T2 construct: connecting residue 276 of K^d heavy chain to the first residue of β2 -microglobulin through spacers; made in house
T2 sequence (P01902+P01887 with tags, fused parts or gaps): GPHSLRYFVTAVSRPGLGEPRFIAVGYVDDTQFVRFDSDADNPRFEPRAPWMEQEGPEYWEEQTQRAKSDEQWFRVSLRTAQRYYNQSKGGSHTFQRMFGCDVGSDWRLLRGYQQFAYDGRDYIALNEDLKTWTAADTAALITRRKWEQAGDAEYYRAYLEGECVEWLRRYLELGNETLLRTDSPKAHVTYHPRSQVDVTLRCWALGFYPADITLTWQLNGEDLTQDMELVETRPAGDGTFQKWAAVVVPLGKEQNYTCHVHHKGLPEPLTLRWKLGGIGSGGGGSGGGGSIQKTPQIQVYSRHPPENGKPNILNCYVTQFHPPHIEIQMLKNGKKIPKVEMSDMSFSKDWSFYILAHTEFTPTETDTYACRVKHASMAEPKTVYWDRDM

[14] = biological target: DRw13 (Homo sapiens, UniProt P01903+P01911); assay: Direct peptide binding assay with purified 125I-labeled HLA-DRw13 (positive control)
Description: (§2) Direct Peptide Binding Assay. Wells of microtiter plates are pretreated with 100 μl 2.5% glutaraldehyde in distilled water for 2 h at 20° C., washed with distilled water, […] buffer, pH 9.6, or in PBS, pH 7.4 or pH 5.0. Remaining free sites are blocked by incubation for 2 h at 20° C. with BSA diluted 1% in PBS containing 0.05% Tween 20 (Tw) and 0.02% sodium azoture. […] After extensive washing, the radioactivity of each well is counted.

[15] = biological target: T2, SC-K^d -15; assay: Direct peptide binding assay, solid phase, with purified 35S-labeled SC-Kd; settings: for binding of peptide to SC-K^d -15 (in words): direct binding assay
Description: as §1
Inhibition Peptide Binding Assay. Concentrations of 0.1-100 μM of competitor peptides are incubated in tubes for 0-3 h at 20° C. with ^125 I-HLA (10^-9 M) diluted in PBS--BSA--Tw containing the protease inhibitors as mentioned above. […] After extensive washing, the radioactivity in each well is counted and the percent of inhibition is calculated.
(§3) COS-1 cells (usually 10^7 cells) were transfected with pSC-K^d -15 DNA, labeled and lysed as above. […] After the final wash in PBS, SC-K^d -15 was eluted from the matrix with an equal volume of 3M thiocyanate for 10 min on ice. After an overnight dialysis in PBS containing 0.1% NP40, 0.05% Tween and 0.2% BSA, SC-K^d -15 was used in direct binding test as below. Its purity was assessed by SDS-PAGE.
Peptides used in this study are described in Choppin et al. (Choppin, J., Martinon, F., Gomard, E., Bahraoui, E., Connan, F., Bouillot, F., and Levy, J.-P, J. Exp. Med., 1990. 172:889 and references therein), except for HLA-Cw3 and HLA-A24 described in Maryanski, J. Ll, Pala, P., Cerottini, J.-C, and Corradin, G., J. Exp. Med. 1988. 167:1391. Binding assays were performed as described in Choppin, J., Martinon, F., Gomard, E., Bahraoui, E., Connan, F., Bouillot, F., and Levy, J.-P, J. Exp. Med., 1990. 172:889. DR3, DRw13, and K^d molecules were also purified and iodinated as in Choppin, J., Martinon, F., Gomard, E., Bahraoui, E., Connan, F., Bouillot, F., and Levy, J.-P, J. Exp. Med., 1990. 172:889.
K^d molecules isolated from the spleen of BALB/c mice were then purified and iodinated. They were purified by affinity chromatography on a 20-8-4 mAb column and compared binding of peptides by the latter and by ^35 S-labeled SC-K^d -15 in the assay of Bouillot et al. (Bouillot, M., Choppin, J., Cornille, F., Martinon, F., Papo, T., Gomard, E., FournieZaluski, M.-C., and Levey, J.-P., Nature 1989. 339:473 and Choppin, J., Martinon, F., Gomard, E., Bahraoui, E., Connan, F., Bouillot, F., and Levy, J.-P, J. Exp. Med., 1990. 172:889).

[16] = biological target: HLA-DR3 (Homo sapiens, UniProt P01903+P01911); assay: Direct peptide binding assay with purified 125I-labeled HLA-DR3 (positive control)
Description: as §2

[17] = system: mAb 34-1-2; assay: Immunoprecipitation of 35S-labeled SC-K^d molecules from transfected COS-1 cell extracts by mAb 34-1-2; format: binding
Description: as §3

[18] = Table 10 (A), input 200000 cpm, peptide 10 μg/ml, pH 5, duplicates

HIV 1 Env. 312-327 (peptide)
cpm bound [1]: 3780 cpm
cpm bound [2]: 22600 cpm
cpm bound [3]: 390 cpm and 377 cpm
cpm bound [4]: 750 cpm and 712 cpm

HIV 1 Vpr. 68-80 (peptide)
cpm bound [5]: 710 cpm and 621 cpm
cpm bound [6]: 21800 cpm and 20600 cpm
cpm bound [7]: 18600 cpm and 18200 cpm
cpm bound to coated env 312-327 in the presence of the competitor [8]: 359 cpm and 409 cpm
cpm bound to coated env 312-327 in the presence of the competitor [9]: 42 cpm and 41 cpm

HLA-A24 170-182 (peptide)
cpm bound [10]: 1060 cpm and 1300 cpm
cpm bound [11]: 284 cpm

LFIHFRIGORHSR [vpr 68-80]
125I-labeled H-2K bound to coated env 312-327 in presence of the competing peptide ([12]; Table 10 (B), competition, env 312-327 bound to plastic + labelled peptide as competitor, input 100000 cpm, duplicates): 359 cpm and 409 cpm
competition with env 312-327 peptide bound to plastic (in words) ([12]; competition experiment, K^d): competed efficiently
35S-labeled SC-Kd bound to coated peptide ([13]; peptide 10 μg/ml, pH 5): 710 cpm and 621 cpm
125I-labeled HLA-DRw13 bound to coated peptide [14, 18]: 21838 cpm and 20593 cpm
binding of peptide to DR213 positive control (in words) ([14]; direct binding assay): significant binding
35S-labeled SC-Kd bound to coated env 312-327 in presence of the competing peptide ([15]; Table 10 (B), competition, env 312-327 bound to plastic + labelled peptide as competitor, input 6000 cpm, duplicates): 42 cpm and 41 cpm
competition with env 312-327 peptide bound to plastic (in words) ([15]; competition experiment, SC-K^d): competed efficiently
binding of peptide to SC-K^d -15 (in words) [15]: significant binding
125I-labeled HLA-DR3 bound to coated peptide [16, 18]: 18582 cpm and 18245 cpm
binding of peptide to HLA-DR3 positive control (in words) ([16]; direct binding assay): significant binding

HIV 1 Nef. 66-80 (peptide)
cpm bound [1]: 2320 cpm and 1820 cpm
cpm bound [2]: 1390 cpm and 1290 cpm
cpm bound [4]: 475 cpm and 397 cpm

HLA-Cw3 170-182 (peptide)
cpm bound [10]: 1340 cpm and 1380 cpm
cpm bound [11]: 169 cpm and 117 cpm
cpm bound to coated env 312-327 in the presence of the competitor [8]: 15400 cpm and 15800 cpm
cpm bound to coated env 312-327 in the presence of the competitor [9]: 367 cpm and 375 cpm

IRIQRGPGRAFVTIGK [env 312-327]
35S-labeled SC-Kd bound to coated peptide ([13]; peptide 30 μg/ml, pH 9.6): 750 cpm and 712 cpm
35S-labeled SC-Kd bound to coated peptide ([15]; Table 10 (B), input 6000 cpm, peptide 5 μg/ml, pH 9.6, duplicates): 390 cpm and 377 cpm
binding of peptide to SC-K^d -15 (in words) [15]: significant binding

TYQRTRALVTG [NPR 147-158]
effect of added immunogenic peptide on immunoprecipitation of SC-K^d molecules [17]: no effect
